Kd data for one substance are collected here from paper doi:10.1101/525659.

The target in this test is His6-tagged αSyn (human) (UniProt P37840). In words: BLI. A general note: In BLI a coated tip is dipped into the sample, and binding shifts an interference pattern.

One may read the Kd as a measure of binding affinity in units of concentration. A higher Kd goes with weaker binding. “E234G/H363A-HYPE (from UniProt Q9BVA6 102-458) (enzyme)” gave a Kd of 15.3 µM.
